In US20200181634A1 (MENDEL BIOTECHNOLOGY, published 2020):

Biological target: T1, SALT TOLERANCE HOMOLOG2 (STH2) (Arabidopsis thaliana, UniProt Q9LQZ7 1-331, limits assumed)
T1 construct: also called G1482
T1 sequence: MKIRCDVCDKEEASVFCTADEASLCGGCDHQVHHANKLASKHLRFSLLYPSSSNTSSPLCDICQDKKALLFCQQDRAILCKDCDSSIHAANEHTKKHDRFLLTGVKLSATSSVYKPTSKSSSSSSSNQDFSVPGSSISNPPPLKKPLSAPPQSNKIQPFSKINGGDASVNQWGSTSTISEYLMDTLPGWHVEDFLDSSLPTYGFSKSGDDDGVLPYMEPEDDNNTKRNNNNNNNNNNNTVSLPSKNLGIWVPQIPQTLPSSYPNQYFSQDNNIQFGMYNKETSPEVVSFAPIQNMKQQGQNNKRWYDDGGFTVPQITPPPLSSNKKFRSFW
Test: in vitro and protoplast based studies (methods not described)

B1: G1988 (other)
chain: MVSFCELCGAEADLHCAADSAFLCRSCDAKFHASNFLFARHFRRVICPNCKSLTQNFVSGPLLPWPPRTTCCSESSSSSCCSSLDCVSSSELSSTTRDVNRARGRENRVNAKAVAVTVADGIFVNWCGKLGLNRDLTNAVVSYASLALAVETRPRATKRVFLAAAFWFGVKNTTTWQNLKKVEDVTGVSAGMIRAVESKLARAMTQQLRRWRVDSEEGWAENDNV
notes: also called B-box zinc finger transcription factor G1988
  binding result: binds
